Ends that are not written are not given here.
How the values were obtained:
CSP in pancreatic tumors [1] = target: T1, CSP in pancreatic tumors (Homo sapiens, UniProt Q15149); assay: Ex vivo planar scintigraphy of resected tumor and adjacent normal tissue; assay type: in vivo; set-up: from tissue; host or cells: pancreatic tumours of patients, imaged in vivo and as resected specimens
Procedure: Following surgery, ex vivo planar images of the resected tumor and adjacent normal tissue (e.g., pancreas and duodenum) were obtained at 28 h post-injection. This timing aligns with surgical resection, allowing immediate imaging of fresh specimens. A white light image was collected for one patient to confirm tumor localization, but these images were not systematically obtained.
For ex vivo images, tumor ROIs were drawn using white light imaging, with the surrounding tissue considered background. […] The activity was calculated using planar data methods, ignoring the self-attenuation of the tissue because of tissue thickness.

CSP = conditions: input parameter applied to all patients in the Krogh cylinder model, no reference given, cited from earlier work
[2] = human, in vivo
Procedure: (§1) Each patient received a single intravenous 100 µg bolus dose of PTP-01 labeled with 370 MBq ^111In. Whole-body planar scintigraphy was performed at 10 min post-injection, followed by scans at 1, 2, 3, 4, 20, and 50 h. SPECT/CT imaging was performed at 4, 20, and 50 h post-injection using a Siemens Symbia™ T6 dual-head SPECT/CT system with low-energy high-resolution (LEHR) collimators optimized for ^111In imaging. […] Quantitative analysis was conducted at the time using fused SPECT/CT images, and planar imaging remains available for biodistribution assessment. Tumor ROIs were initially defined using fused SPECT/CT images and cross-referenced with planar data for consistency. […] However, attenuation correction was not applied to the SPECT images, as full quantitative SPECT reconstruction was not supported by the scanner at the time. Quantitative analysis (%ID) was derived from planar scintigraphy data using calibration factors from a standard source (syringe) imaged under identical conditions. While SPECT/CT facilitated ROI placement, quantitative measurements were based on planar scintigraphy due to the absence of attenuation-corrected SPECT data. […]
Blood clearance parameters were calculated individually for each patient based on a biexponential fit to blood %ID/g data. […]

CSP in pancreatic tumors [3] = target: T1, CSP in pancreatic tumors; set-up: CSP, typically localized intracellularly in healthy cells, is aberrantly expressed on the surface of cancer cells; from tissue; host or cells: pancreatic tumours of patients, imaged in vivo and as resected specimens; conditions: in vivo, iv, 100 ug
Procedure: as §1
For in vivo images, we generated eight ROIs for each patient, including bladder, heart, left kidney, right kidney, liver, syringe, whole body, and tumor. […] Results were expressed as percent injected dose (%ID). […]

[4] = tested on: CSP (plectin) in murine tumor models; conditions: preclinical SPECT imaging of murine tumor models; cited from earlier work
Description: The CSP-targeting peptide KTLLPTP has been adapted for numerous applications as a targeting ligand for imaging agents. […] Tumor models with higher CSP levels also had correspondingly high tumor uptake of ^99mTc-KTLLPTP. Here we report the results of a phase 0 trial examining a tetrameric version of KTLLPTP labeled with ^111In called PTP-01 (NCT01962909) in patients with resectable p ...

T1 sequence (Q15149 whole entry): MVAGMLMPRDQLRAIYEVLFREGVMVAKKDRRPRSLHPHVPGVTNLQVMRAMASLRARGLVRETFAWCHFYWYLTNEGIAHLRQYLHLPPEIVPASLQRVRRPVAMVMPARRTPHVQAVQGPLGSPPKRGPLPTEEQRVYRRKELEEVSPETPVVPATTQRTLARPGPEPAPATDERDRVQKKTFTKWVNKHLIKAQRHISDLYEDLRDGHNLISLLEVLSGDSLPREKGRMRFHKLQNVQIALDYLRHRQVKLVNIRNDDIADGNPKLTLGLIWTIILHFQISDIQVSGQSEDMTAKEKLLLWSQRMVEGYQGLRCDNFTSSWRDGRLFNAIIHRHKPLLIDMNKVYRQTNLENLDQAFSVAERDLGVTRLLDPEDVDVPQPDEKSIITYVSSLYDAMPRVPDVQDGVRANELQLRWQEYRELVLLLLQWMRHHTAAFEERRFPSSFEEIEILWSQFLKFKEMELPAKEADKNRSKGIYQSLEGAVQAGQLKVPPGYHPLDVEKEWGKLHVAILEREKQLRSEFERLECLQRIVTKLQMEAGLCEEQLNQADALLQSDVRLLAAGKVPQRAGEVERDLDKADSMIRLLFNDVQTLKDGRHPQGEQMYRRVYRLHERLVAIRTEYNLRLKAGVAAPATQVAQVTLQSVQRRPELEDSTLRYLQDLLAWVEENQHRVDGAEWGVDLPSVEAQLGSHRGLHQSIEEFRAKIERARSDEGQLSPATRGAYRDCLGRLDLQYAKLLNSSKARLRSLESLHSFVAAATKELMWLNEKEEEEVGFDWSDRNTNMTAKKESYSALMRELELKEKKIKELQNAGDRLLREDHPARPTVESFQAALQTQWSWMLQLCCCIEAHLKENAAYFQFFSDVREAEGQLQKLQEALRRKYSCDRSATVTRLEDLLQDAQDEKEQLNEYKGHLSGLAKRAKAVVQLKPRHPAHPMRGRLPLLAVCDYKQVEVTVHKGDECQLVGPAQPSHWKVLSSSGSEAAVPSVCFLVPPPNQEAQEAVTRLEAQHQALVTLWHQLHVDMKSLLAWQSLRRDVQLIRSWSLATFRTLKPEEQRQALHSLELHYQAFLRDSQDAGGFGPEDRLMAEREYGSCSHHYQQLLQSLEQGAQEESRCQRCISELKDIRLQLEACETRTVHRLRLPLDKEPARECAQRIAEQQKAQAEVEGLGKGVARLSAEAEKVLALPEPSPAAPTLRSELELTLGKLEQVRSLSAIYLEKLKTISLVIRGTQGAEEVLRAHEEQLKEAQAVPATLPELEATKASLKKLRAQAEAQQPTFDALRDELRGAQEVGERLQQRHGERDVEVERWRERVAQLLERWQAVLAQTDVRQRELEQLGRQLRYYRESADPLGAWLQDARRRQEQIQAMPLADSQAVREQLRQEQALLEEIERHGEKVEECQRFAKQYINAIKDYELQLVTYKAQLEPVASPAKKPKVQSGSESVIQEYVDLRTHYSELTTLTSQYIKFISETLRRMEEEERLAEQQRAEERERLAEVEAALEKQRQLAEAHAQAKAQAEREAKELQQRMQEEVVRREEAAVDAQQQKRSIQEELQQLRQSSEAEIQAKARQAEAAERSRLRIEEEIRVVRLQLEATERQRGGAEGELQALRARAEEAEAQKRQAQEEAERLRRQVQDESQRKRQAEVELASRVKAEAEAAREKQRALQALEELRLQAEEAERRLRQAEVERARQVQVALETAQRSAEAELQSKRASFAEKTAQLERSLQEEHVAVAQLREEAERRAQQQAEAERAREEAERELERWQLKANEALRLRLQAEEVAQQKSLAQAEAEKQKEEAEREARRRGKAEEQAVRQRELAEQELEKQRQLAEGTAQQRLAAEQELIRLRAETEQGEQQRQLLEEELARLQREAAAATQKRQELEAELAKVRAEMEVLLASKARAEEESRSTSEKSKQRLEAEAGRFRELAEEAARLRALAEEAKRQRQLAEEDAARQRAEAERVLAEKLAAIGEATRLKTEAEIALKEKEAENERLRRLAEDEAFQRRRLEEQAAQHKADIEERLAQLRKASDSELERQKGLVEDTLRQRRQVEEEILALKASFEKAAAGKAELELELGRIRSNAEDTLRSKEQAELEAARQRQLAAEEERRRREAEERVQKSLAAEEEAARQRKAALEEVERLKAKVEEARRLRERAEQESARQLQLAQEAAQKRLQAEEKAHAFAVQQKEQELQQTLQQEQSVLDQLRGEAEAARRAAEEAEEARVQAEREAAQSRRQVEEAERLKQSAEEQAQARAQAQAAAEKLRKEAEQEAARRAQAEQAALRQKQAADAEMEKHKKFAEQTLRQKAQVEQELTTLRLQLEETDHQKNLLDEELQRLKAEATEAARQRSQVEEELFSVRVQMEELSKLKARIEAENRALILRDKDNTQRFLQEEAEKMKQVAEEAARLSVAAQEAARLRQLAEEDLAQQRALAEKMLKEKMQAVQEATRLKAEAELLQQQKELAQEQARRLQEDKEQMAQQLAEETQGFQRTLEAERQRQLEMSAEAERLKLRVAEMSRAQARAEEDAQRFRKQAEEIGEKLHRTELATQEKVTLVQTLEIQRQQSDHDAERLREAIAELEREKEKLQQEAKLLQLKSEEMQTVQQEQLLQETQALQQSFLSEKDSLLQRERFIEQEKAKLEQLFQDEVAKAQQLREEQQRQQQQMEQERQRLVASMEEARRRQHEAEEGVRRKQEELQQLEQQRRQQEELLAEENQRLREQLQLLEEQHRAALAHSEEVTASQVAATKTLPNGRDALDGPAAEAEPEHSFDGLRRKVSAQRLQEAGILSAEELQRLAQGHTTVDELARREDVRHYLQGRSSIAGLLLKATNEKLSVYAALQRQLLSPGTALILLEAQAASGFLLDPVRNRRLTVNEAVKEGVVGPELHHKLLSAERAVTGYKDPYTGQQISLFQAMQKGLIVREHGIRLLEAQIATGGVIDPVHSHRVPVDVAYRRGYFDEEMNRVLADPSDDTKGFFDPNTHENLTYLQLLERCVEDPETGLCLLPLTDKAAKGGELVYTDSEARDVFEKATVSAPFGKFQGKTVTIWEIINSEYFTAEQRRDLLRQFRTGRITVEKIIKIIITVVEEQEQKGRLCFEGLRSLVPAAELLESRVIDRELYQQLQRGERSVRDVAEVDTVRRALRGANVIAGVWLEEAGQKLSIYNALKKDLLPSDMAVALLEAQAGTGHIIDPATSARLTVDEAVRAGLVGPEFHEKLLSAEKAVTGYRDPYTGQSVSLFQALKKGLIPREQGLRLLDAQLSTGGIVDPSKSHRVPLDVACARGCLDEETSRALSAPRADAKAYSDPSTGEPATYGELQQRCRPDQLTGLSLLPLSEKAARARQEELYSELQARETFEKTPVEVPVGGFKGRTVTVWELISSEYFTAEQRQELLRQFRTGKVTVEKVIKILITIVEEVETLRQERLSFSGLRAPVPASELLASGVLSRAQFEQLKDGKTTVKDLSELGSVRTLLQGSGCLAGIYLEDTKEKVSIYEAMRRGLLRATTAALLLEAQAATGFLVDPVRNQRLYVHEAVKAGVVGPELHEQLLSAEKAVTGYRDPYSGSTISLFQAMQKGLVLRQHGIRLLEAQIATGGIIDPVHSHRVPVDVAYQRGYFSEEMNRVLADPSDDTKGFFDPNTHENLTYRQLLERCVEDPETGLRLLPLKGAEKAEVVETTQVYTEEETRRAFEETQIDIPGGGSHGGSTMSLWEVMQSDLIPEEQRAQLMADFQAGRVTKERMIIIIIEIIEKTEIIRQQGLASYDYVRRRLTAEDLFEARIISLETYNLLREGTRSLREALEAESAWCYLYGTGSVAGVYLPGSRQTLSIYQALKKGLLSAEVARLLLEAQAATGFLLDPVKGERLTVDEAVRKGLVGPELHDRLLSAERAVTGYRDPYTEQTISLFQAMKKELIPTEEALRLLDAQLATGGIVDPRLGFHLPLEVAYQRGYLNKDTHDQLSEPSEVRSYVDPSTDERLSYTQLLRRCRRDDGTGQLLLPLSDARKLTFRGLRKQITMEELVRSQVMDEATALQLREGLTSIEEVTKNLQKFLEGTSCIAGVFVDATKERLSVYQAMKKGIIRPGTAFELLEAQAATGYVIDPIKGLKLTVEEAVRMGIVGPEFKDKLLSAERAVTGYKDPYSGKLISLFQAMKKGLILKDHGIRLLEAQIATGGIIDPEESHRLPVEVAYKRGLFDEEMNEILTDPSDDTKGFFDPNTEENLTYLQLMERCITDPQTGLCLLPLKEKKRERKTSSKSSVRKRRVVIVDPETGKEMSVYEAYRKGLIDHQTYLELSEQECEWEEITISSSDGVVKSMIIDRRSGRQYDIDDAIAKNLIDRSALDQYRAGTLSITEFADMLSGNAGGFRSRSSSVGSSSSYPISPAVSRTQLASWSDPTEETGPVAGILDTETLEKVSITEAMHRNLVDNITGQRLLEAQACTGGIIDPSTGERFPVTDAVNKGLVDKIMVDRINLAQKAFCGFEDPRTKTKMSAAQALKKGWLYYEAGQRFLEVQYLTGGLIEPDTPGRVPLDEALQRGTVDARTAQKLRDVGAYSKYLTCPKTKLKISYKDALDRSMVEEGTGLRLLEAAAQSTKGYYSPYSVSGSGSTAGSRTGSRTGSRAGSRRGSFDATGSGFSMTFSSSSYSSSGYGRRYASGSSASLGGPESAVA

| Substance | tumor-to-background ratio (CSP in pancreatic tumors [1]; all three patients, confirmed by ex vivo planar scintigraphy) | tumor-to-background ratio (CSP in pancreatic tumors [1]; ex vivo planar scintigraphy of resected specimens, 28 h post-injection, mean across patients) | Association rate constant (kon) (CSP) [M⁻¹ s⁻¹] | Internalization half-life (CSP) [h] | Residualization half-life (CSP) [h] | Kd (CSP; read-out: Dissociation constant (KD)) [nM] | blood concentrations, fold higher than in the other two patients [2] | elimination half-life (T1/2) ([2]; iv) [h] | average cumulative retention in tumor (CSP in pancreatic tumors [3]) [%ID] | tumor accumulation, biodistribution and blood clearance [4] |
| --- | --- | --- | --- | --- | --- | --- | --- | --- | --- | --- |
| PTP-01: tetrameric version of KTLLPTP on a branched PEG linker, labeled with ^111In via DOTA; CSP-targeting imaging agent (also: tetramer on branched PEG linker, DOTA chelator labelled with 111In) | exceeding 2 | 2.18 ± 0.14 | 100000 | 13 | 120 | 90 | 50-70 fold | 5 to 22 | 8.90 ± 3.31 | – |
| ^99mTc-KTLLPTP | – | – | – | – | – | – | – | – | – | a tumor accumulation and favorable biodistribution in addition to fast blood clearance |

— article PMC12162372, “Imaging Cell Surface Plectin in PDAC Patients – A First-In-Human Phase 0 Study Report” (Molecular Imaging and Biology, 2025)
